This note sets out measurements from US20230357391A1 (EXELIXIS, published 2023).

As a reminder, the EC50 is the midpoint of the concentration-response curve. A high value points to a less potent agent. The IC50 is the midpoint of a concentration-inhibition curve.

Substitutions are numbered along the chain they refer to. “And” between values parts separate entries of the source, which are not always exact repeats. Equal values may be shown once.

Assay [1] has as its target T1, human CD47 on cells (human, UniProt Q08722 19-323).
T1 construct: also called surface CD47 of MDA-MB-231 cells; CD47 of JeKo-1 cells
As to the kind of experiment: flow cytometry, MDA-MB-231 cells. In general terms: A flow cytometer gives signals particle by particle.
Description: Cells were harvested at 70-90% confluence on the day of the assay. Cells were collected by centrifugation at 200xg for 5 minutes and media was removed. Cells were resuspended at 2×10⁶ cells per mL in cold PBS. An 8-point antibody dilution series (2x concentration) was prepared in PBS to cover the expected binding affinities of the antibodies being tested. […] 50 µL per well of cell suspension was added. Plates were placed at 4° C. for 45-60 minutes.
Cells were collected by centrifugation at 400xg for 7 minutes and secondary antibody was removed. Cells were resuspended in 50 µL per well of PBS and analyzed by flow cytometry. Binding curves were calculated using the mean fluorescence intensity (MFI) of the FITC fluorescence signal on the cells.

In assay [2] the target is T1, human CD47 on cells. As to the kind of experiment: cell-based or functional assay.
Assay [3] has as its target T2, mouse CD47 (mouse, UniProt Q61735-2 19-158, limits assumed, biotinylated).
T2 construct: also called mCD47
T2 sequence (looked up): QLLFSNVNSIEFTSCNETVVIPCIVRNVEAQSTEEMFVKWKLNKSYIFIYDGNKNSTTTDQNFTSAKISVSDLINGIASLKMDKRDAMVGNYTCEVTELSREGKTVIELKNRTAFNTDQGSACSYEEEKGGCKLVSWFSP
Description: BLI (Octet), mouse CD47 on sensor; X = no mouse cross-reactivity.
Description: Mouse CD47 was obtained from Acro Biosystems (Acro Cat. No. CD7-M82E4, Acro Cat. No. CD7-M522b) and biotinylated using standard protocols. The free biotin was removed by extensive dialysis against PBS. Biotinylated antigen (CD47) was immobilized on a streptavidin sensor. The cross-reactive antibodies were identified by the association to mouse CD47 using Octet.

B1: Antibody C40 (antibody, human IgG1, kappa, V domains shown)
VH: EVQLVESGGGLVQPGGSLRLSCAASGFTFSYYYIHWVRQAPGKGLEWVAWIDPYGHSTTYADSVKGRFTISADTSKNTAYLQMNSLRAEDTAVYYCARGGRGAMDYWGQGTLVTAST
VL: DIQMTQSPSSLSASVGDRVTITCRASQSVSSAVAWYQQKPGKAPKLLIYSASSLYSGVPSRFSGSRSGTDFTLTISSLQPEDFATYYCQQRYSSLLTFGQGTKVEIKR
notes: Full length IgG
For B1, in assay [1], the EC50 was > 1000 nM. Further, the “IC50” value in assay [2] amounted to 5.38 nM.

B2: Antibody C59 (antibody, human IgG1, kappa, V domains shown)
VH: B1 VH with S30T, Y31S, W50Y, P53S, Y54K, G55H, H56G, S57T, T59Q, G102S
VL: B1 VL with Y92T, S93T
notes: Full length IgG
As for B2, the binding result in assay [3] is “no binding”. In assay [1], the EC50 was 200 to 1000 nM and 550 nM. Besides, the “IC50” value in assay [2] worked out at 140 nM.
